Assays:
[1] = biological target: T1, human von Willebrand Factor (human, UniProt P04275 764-2813); assay: ELISA: human vWF captured on goat anti-human vWF coated plates, Fab dilutions, goat anti-human kappa alkaline phosphatase, O.D. 560 after 30 min
T1 construct: In the ELISA captured on plates by goat anti-human vWF; biotinylated in the plaque lift; also called vWF; human vWF

CD40-Ig fusion protein [2] = biological target: T2, CD40-Ig fusion protein (UniProt P25942 21-193); assay: SPR (BIAcore), CD40-Ig immobilised
T2 construct: also called CD40-Ig antigen; CD40 receptor; not shown: Ig part, not described; in the ELISA and capture lift it is detected with goat anti-mouse IgG2b conjugate

CD40-Ig fusion protein [3] = biological target: T2, CD40-Ig fusion protein; assay: SPR (BIAcore), CD40-Ig immobilised, purified Fab in solution

T2 sequence (P25942 21-193): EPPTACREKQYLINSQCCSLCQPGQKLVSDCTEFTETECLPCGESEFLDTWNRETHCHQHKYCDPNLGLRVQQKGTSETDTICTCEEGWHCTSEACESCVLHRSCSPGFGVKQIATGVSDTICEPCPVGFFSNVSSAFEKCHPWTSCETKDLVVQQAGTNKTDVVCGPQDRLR

| Binder | EC50 (read off the curve) [1] | fold lower affinity against CW43 (CD40-Ig fusion protein [2]) | Kd (CD40-Ig fusion protein [3]) |
| --- | --- | --- | --- |
| NMC-4 antibody (parental/donor antibody) (antibody, V domains shown, also called parental/donor NMC-4 antibody) VH: VQLLESGPGLVAPSQSLSITCTVSGFSLTDYGVDWVRQPPGKGLEWLGMIWGDGSTDYNSALKSRLSITKDNSKSQVFLKMNSLQTDDTARYYCVRDPADYGNYDYALDYWGQGTSVTVS VL: SSLSASLGDRVTISCSASQDINKYLNWYQQKPDGAVKLLIFYTSSLHSGVPSRFSGSGSGTDYSLTISNLEPEDIATYYCQQYEKLPWTFGGGTKLEVK | ~0.03 µg/mL | – | – |
| anti-vWF combinatorial library clone C1 Fab (Fab, V domains shown, Fab with human CL and CH1) VH: EVQLVESGGGLVQPGGSLRLSCAASGFSLGDYGVDWVRQAPGKGLEWVGMIWPDGSTDYNSALQSRFTISRDDSKNSLYLQMNSLKTEDTAVYYCARDPADYGNYNYALDYWGQGTTVTVS VL: DIQMTQSPSSLSASVGDRVTITCSASQDINDYLNWYQQKPGKAPKLLIYNTSSLHSGVPSRFSGSGSGTDFTLTISSLQPEDFATYYCQQYEDLPWTFGGGTKVEIK | ~0.02 µg/mL | – | – |
| anti-vWF combinatorial library clone C4 Fab (Fab, V domains shown, Fab with human CL and CH1) VH: EVQLVESGGGLVQPGGSLRLSCAASGFSLGDYGVDWVRQAPGKGLEWVGMIWGDGSVDVNSALQSRFTISRDDSKNSLYLQMNSLKTEDTAVYYCARDPADYGNYNYALDYWGQGTTVTVS VL: DIQMTQSPSSLSASVGDRVTITCSASQDINDYLNWYQQKPGKAPKLLIYGTSSLHSGVPSRFSGSGSGTDFTLTISSLQPEDFATYYCQQYEDLPWTFGGGTKVEIK | ~0.02 µg/mL | – | – |
| Y49K, derivative of clone CW43 made by site-directed mutagenesis (anti-CD40 Fab) (Fab, V domains shown, Fab, human constant regions; framework identical to clone 1H11; also called clone Y49K) VH: QVQLVQSGPELKKPGASVKVSCKASGYAFTTTGMQWVRQAPGQGLEWMGWINTHSGVPKYVEDFKGRFVFSLDTSVSTAYLQISSLKAEDTAVYFCARSGNGNYDLAYFRYWGQGTLVTVSS VL: EIVLTQSPATLSLSPGERATLSCRASQSISDYLHWYQQKPGQAPRLLIKYASHSISGIPARFSGSGSGTDFTLTISSLEPEDFAVYYCQHGHSFPRTFGGGTKVEIK | – | 5 fold | 53.4 nM |
| chimeric anti-CD40 Fab (variable regions of murine mAb 40.2.220) (Fab, V domains shown, Fab expressed in bacteria from vector M13IX104CS (human kappa and gamma 1 constant regions, terminal cysteines replaced by serine); purified Fabs carry a six-histidine tag at the C-terminus of the H chain; also called chimeric Fab; chimeric CD40) VH: QIQLVQSGPELKKPGETVRISCKASGYAFTTTGMQWVQEMPGKGLKWIGWINTHSGVPKYVEDFKGRFAFSLETSANTAYLQISNLKNEDTATYFCVRSGNGNYDLAYFAYWGQGTLVTVSA VL: DIVLTQSPATLSVTPGDRVSLSCRASQSISDYLHWYQQKSHESPRLLIKYASHSISGIPSRFSGSGSGSDFTLSINSVEPEDVGIYYCQHGHSFPRTFGGGTKLEIK | – | – | 48.3 nM |
